Source: paper PMC12057046, “Elucidation of short linear motif-based interactions of the MIT and rhodanese domains of the ubiquitin-specific protease 8” (Biology Direct, 2025)

B1: KIAA1614 peptide 568-583 (uncharacterized protein KIAA1614), 16-mer library wild type / USP8 rhodanese domain (ubiquitin carboxyl-terminal hydrolase 8, residues 174-317) (parent)
chain 1: GMERVLGGLSSPLRLL
chain 2: KCETKEKGAITAKELYTMMTDKNISLIIMDARRMQDYQDSCILHSLSVPEEAISPGVTASWIEAHLPDDSKDTWKKRGNVEYVVLLDWFSSAKDLQIGTTLRSLKDALFKWESKTVLRNEPLVLEGGYENWLLCYPQYTTNAKV
B2: TET3 peptide 1705-1720 (methylcytosine dioxygenase TET3), 16-mer library wild type / USP8 rhodanese domain (ubiquitin carboxyl-terminal hydrolase 8, residues 174-317) (parent)
chain 1: GLALWEAKMKQLAERA
chain 2: B1 chain 2

Variants of: B1
Assay: peptide-phage display deep mutational scan (M13, 16-mer library, displayed with a C-terminal GGGSG linker encoded by the 3' flank) selected against the GST-tagged USP8 rhodanese domain, four rounds; NGS counts summed over selection …
Details: with USP8 rhodanese domain (ubiquitin carboxyl-terminal hydrolase 8, residues 174-317), 10 µg GST-bait on MaxiSorp, pre-cleared on GST, 2 h at 4 °C, five washes with 0.05% Tween 20 in PBS, not graded, scale: average over two replicas of the peptide's fractional NGS count
A screen value of 1.55e-05 was found for chain 1 P12T in this work. A screen value of 6.32e-06 was found for chain 1 P12L in this work. A screen value of 0.000236 was found for chain 1 P12S in this work. A screen value of 6.32e-06 was found for chain 1 P12Q in this work. A screen value of 1.26e-05 was found for chain 1 P12R in this work. A screen value of 0.000138 was found for chain 1 G8V in this work. A screen value of 6.32e-06 was found for chain 1 G8T in this work. A screen value of 6.32e-06 was found for chain 1 G8D in this work. A screen value of 0.0217 was found for chain 1 V5E in this work. A screen value of 0.000158 was found for chain 1 V5S in this work. A screen value of 0.00426 was found for chain 1 V5Y in this work. A screen value of 0.000344 was found for chain 1 V5L in this work. A screen value of 9.76e-05 was found for chain 1 V5I in this work. A screen value of 0.011 was found for chain 1 V5W in this work. A screen value of 0.0191 was found for chain 1 V5F in this work. A screen value of 0.00268 was found for chain 1 V5M in this work. A screen value of 0.00579 was found for chain 1 V5N in this work. A screen value of 0.00207 was found for chain 1 V5G in this work. A screen value of 0.0085 was found for chain 1 V5H in this work. A screen value of 6.6e-05 was found for chain 1 V5K in this work. A screen value of 0.0242 was found for chain 1 V5D in this work. A screen value of 0.014 was found for chain 1 V5Q in this work. A screen value of 0.00189 was found for chain 1 V5P in this work. A screen value of 0.000682 was found for chain 1 S11T in this work. A screen value of 2.53e-05 was found for chain 1 S11F in this work. A screen value of 1.26e-05 was found for chain 1 S11A in this work. A screen value of 2.18e-05 was found for chain 1 S11V in this work. A screen value of 0.000128 was found for chain 1 S11E in this work. A screen value of 6.32e-06 was found for chain 1 S11Y in this work. A screen value of 6.32e-06 was found for chain 1 S11R in this work. A screen value of 0.00296 was found for chain 1 M2K in this work. A screen value of 0.0668 was found for chain 1 M2E in this work. A screen value of 0.00111 was found for chain 1 M2L in this work. A screen value of 0.00131 was found for chain 1 M2F in this work. A screen value of 0.00237 was found for chain 1 M2Q in this work. A screen value of 0.0166 was found for chain 1 M2V in this work. A screen value of 0.00782 was found for chain 1 M2S in this work. A screen value of 0.00145 was found for chain 1 M2R in this work. A screen value of 0.00918 was found for chain 1 M2I in this work. A screen value of 0.0456 was found for chain 1 M2G in this work. A screen value of 0.00694 was found for chain 1 M2N in this work. A screen value of 0.00188 was found for chain 1 M2Y in this work. A screen value of 0.0101 was found for chain 1 M2D in this work. A screen value of 0.0119 was found for chain 1 M2T in this work. A screen value of 0.0157 was found for chain 1 M2H in this work. A screen value of 1.26e-05 was found for chain 1 L15V in this work. A screen value of 1.26e-05 was found for chain 1 L15N in this work. A screen value of 1.26e-05 was found for chain 1 L15A in this work. A screen value of 6.32e-06 was found for chain 1 L15I in this work. A screen value of 1.26e-05 was found for chain 1 L15G in this work. A screen value of 0.000164 was found for chain 1 L6P in this work. A screen value of 6.32e-06 was found for chain 1 L6V in this work. A screen value of 6.88e-05 was found for chain 1 L6G in this work. A screen value of 0.00654 was found for chain 1 L6I in this work. A screen value of 6.32e-06 was found for chain 1 L6N in this work. A screen value of 1.9e-05 was found for chain 1 L6Q in this work. A screen value of 5.05e-05 was found for chain 1 L6T in this work. A screen value of 6.32e-06 was found for chain 1 L6F in this work. A screen value of 6.32e-06 was found for chain 1 S10I in this work. A screen value of 1.55e-05 was found for chain 1 S10E in this work. A screen value of 6.32e-06 was found for chain 1 S10V in this work. A screen value of 6.32e-06 was found for chain 1 S10A in this work. A screen value of 1.55e-05 was found for chain 1 S10P in this work. A screen value of 1.26e-05 was found for chain 1 L13R in this work. A screen value of 0.000724 was found for chain 1 L13W in this work. A screen value of 0.000122 was found for chain 1 L13Y in this work. A screen value of 3.72e-05 was found for chain 1 L13D in this work. A screen value of 6.32e-06 was found for chain 1 L13K in this work. A screen value of 0.000258 was found for chain 1 L13M in this work. A screen value of 0.00179 was found for chain 1 L13S in this work. A screen value of 4.42e-05 was found for chain 1 L13A in this work. A screen value of 1.26e-05 was found for chain 1 L13P in this work. A screen value of 6.32e-06 was found for chain 1 L13N in this work. A screen value of 6.32e-05 was found for chain 1 L13G in this work. A screen value of 5.05e-05 was found for chain 1 R4W in this work. A screen value of 6.32e-06 was found for chain 1 R4T in this work. A screen value of 1.55e-05 was found for chain 1 R4A in this work. A screen value of 1.26e-05 was found for chain 1 R4L in this work. A screen value of 0.000246 was found for chain 1 L16H in this work. A screen value of 7.58e-05 was found for chain 1 L16Q in this work. A screen value of 1.55e-05 was found for chain 1 L16A in this work. A screen value of 2.53e-05 was found for chain 1 L16F in this work. A screen value of 6.32e-06 was found for chain 1 L16N in this work. A screen value of 1.55e-05 was found for chain 1 L16T in this work. A screen value of 1.26e-05 was found for chain 1 L16P in this work. A screen value of 0.000468 was found for chain 1 L16I in this work. A screen value of 0.000924 was found for chain 1 G7Y in this work. A screen value of 1.55e-05 was found for chain 1 G7K in this work. A screen value of 6.32e-06 was found for chain 1 G7W in this work. A screen value of 0.00247 was found for chain 1 G7N in this work. A screen value of 0.000523 was found for chain 1 G7I in this work. A screen value of 0.00689 was found for chain 1 G7Q in this work. A screen value of 0.0883 was found for chain 1 G7T in this work. A screen value of 0.0412 was found for chain 1 G7D in this work. A screen value of 0.00706 was found for chain 1 G7M in this work. A screen value of 0.00722 was found for chain 1 G7F in this work. A screen value of 0.00275 was found for chain 1 G7A in this work. A screen value of 1.55e-05 was found for chain 1 G7P in this work. A screen value of 0.0068 was found for chain 1 G7V in this work. A screen value of 0.000596 was found for chain 1 G7L in this work. A screen value of 0.0436 was found for chain 1 R14V in this work. A screen value of 0.000346 was found for chain 1 R14H in this work. A screen value of 0.00245 was found for chain 1 R14S in this work. A screen value of 0.00135 was found for chain 1 R14T in this work. A screen value of 0.000377 was found for chain 1 R14Y in this work. A screen value of 1.9e-05 was found for chain 1 R14E in this work. A screen value of 1.9e-05 was found for chain 1 R14G in this work. A screen value of 0.00646 was found for chain 1 R14I in this work. A screen value of 0.00138 was found for chain 1 R14F in this work. A screen value of 0.000355 was found for chain 1 R14K in this work. A screen value of 0.000793 was found for chain 1 R14L in this work. A screen value of 5.27e-05 was found for chain 1 R14N in this work. A screen value of 0.00337 was found for chain 1 R14W in this work. A screen value of 0.000202 was found for chain 1 L9W in this work. A screen value of 3.79e-05 was found for chain 1 L9F in this work. A screen value of 9.76e-05 was found for chain 1 L9G in this work. A screen value of 0.0151 was found for chain 1 L9T in this work. A screen value of 1.26e-05 was found for chain 1 L9R in this work. A screen value of 0.000947 was found for chain 1 L9P in this work. A screen value of 0.0392 was found for chain 1 L9D in this work. A screen value of 9.69e-05 was found for chain 1 L9K in this work. A screen value of 0.00126 was found for chain 1 L9A in this work. A screen value of 0.0169 was found for chain 1 L9Q in this work. A screen value of 9.62e-05 was found for chain 1 L9M in this work. A screen value of 0.00586 was found for chain 1 L9V in this work. A screen value of 6.18e-05 was found for chain 1 L9Y in this work. A screen value of 0.164 was found for chain 1 L9E in this work. A screen value of 0.000484 was found for chain 1 L9I in this work. A screen value of 0.000897 was found for chain 1 E3N in this work. A screen value of 8.85e-05 was found for chain 1 E3T in this work. A screen value of 0.000133 was found for chain 1 E3W in this work. A screen value of 0.000223 was found for chain 1 E3S in this work. A screen value of 6.32e-05 was found for chain 1 E3L in this work. A screen value of 9.48e-05 was found for chain 1 E3P in this work. A screen value of 0.000118 was found for chain 1 E3Y in this work. A screen value of 0.00108 was found for chain 1 E3Q in this work. A screen value of 0.000229 was found for chain 1 E3A in this work. A screen value of 0.00356 was found for chain 1 E3D in this work. A screen value of 6.32e-06 was found for chain 1 E3F in this work. A screen value of 0.000202 was found for chain 1 G1Y in this work. A screen value of 0.000202 was found for chain 1 G1K in this work. A screen value of 0.00494 was found for chain 1 G1H in this work. A screen value of 0.00104 was found for chain 1 G1P in this work. A screen value of 3.16e-05 was found for chain 1 G1L in this work. A screen value of 3.79e-05 was found for chain 1 G1V in this work. A screen value of 8.36e-05 was found for chain 1 G1I in this work. A screen value of 0.0197 was found for chain 1 G1A in this work. A screen value of 0.0088 was found for chain 1 G1Q in this work. A screen value of 0.00131 was found for chain 1 G1D in this work. A screen value of 0.0012 was found for chain 1 G1N in this work.

Variants of: B2
Assay: as above
Details: with USP8 rhodanese domain (ubiquitin carboxyl-terminal hydrolase 8, residues 174-317), 10 µg GST-bait on MaxiSorp, pre-cleared on GST, 2 h at 4 °C, five washes with 0.05% Tween 20 in PBS, not graded, scale: average over two replicas of the peptide's fractional NGS count
A screen value of 4.33e-06 was found for chain 1 W5F in this work. A screen value of 4.33e-06 was found for chain 1 W5H in this work. A screen value of 1.15e-05 was found for chain 1 W5L in this work. A screen value of 1.58e-05 was found for chain 1 W5R in this work. A screen value of 7.36e-05 was found for chain 1 W5G in this work. A screen value of 8.66e-06 was found for chain 1 W5K in this work. A screen value of 4.33e-06 was found for chain 1 W5V in this work. A screen value of 7.78e-05 was found for chain 1 W5S in this work. A screen value of 4.33e-06 was found for chain 1 W5T in this work. A screen value of 4.33e-05 was found for chain 1 W5P in this work. A screen value of 0.00029 was found for chain 1 W5M in this work. A screen value of 0.000125 was found for chain 1 R15W in this work. A screen value of 0.0485 was found for chain 1 R15Y in this work. A screen value of 0.0149 was found for chain 1 R15S in this work. A screen value of 0.0216 was found for chain 1 R15Q in this work. A screen value of 2.45e-05 was found for chain 1 R15V in this work. A screen value of 0.00935 was found for chain 1 R15T in this work.
